Laboratory results: US20240059759A1 (BIGHAT BIOSCIENCES, published 2024)

Key:
[1] = target: T1, SARS-CoV-1 RBD (SARS-CoV-1, UniProt P59594 306-527)
[2] = target: T1, SARS-CoV-1 RBD; remark: listed apart in the source

B1: VHH-72(S57G) (VHH)
VHH: QVQLQESGGGLVQAGGSLRLSCAASGRTFSEYAMGWFRQAPGKEREFVATISWSGGGTYYTDSVKGRFTISRDNAKNTVYLQMNSLKPDDTAVYYCAAAGLGTVVSEWDYDYDYWGQGTQVTVSS
**Q.** B1 was tested. Which “Rel. EC50 - ELISA” value [1] did it give?
**A.** 0.3 relative to WT

B2: VHH-72 (S57A) (VHH)
VHH: QVQLQESGGGLVQAGGSLRLSCAASGRTFSEYAMGWFRQAPGKEREFVATISWSGGATYYTDSVKGRFTISRDNAKNTVYLQMNSLKPDDTAVYYCAAAGLGTVVSEWDYDYDYWGQGTQVTVSS
**Q.** For B2, which “Rel. EC50 - ELISA” value [1] is on record?
**A.** 0.43 relative to WT

B3: VHH-72 (S57Y) (VHH)
VHH: QVQLQESGGGLVQAGGSLRLSCAASGRTFSEYAMGWFRQAPGKEREFVATISWSGGYTYYTDSVKGRFTISRDNAKNTVYLQMNSLKPDDTAVYYCAAAGLGTVVSEWDYDYDYWGQGTQVTVSS
**Q.** How did the EC50 [2] turn out when B3 was run?
**A.** > 10 µg/mL
